Here are results for twelve molecules from patent publication US20100260763A1 (DOMANTIS, published 2010).

Data set [1] concerns the target T1, recombinant human VEGF (human, UniProt P15692-4 27-191, limits assumed, biotinylated in the selections, phage ELISA and BIAcore screening).
T1 construct: also called hVEGF; VEGFA
The experiment in a line: BIAcore kinetics.

Data set [2] addresses T1, recombinant human VEGF. The experiment in a line: receptor binding assay.
Data set [3] has as its target T1, recombinant human VEGF. Kind of data set: RBA assay; taken as the Fc fusion of the row.
For data set [4], the target named is T2, TNFR1-FC fusion (human, UniProt P19438 30-211, limits assumed).
T2 construct: not shown: Fc part, captured by goat anti-human IgG; not described further
T2 sequence (looked up): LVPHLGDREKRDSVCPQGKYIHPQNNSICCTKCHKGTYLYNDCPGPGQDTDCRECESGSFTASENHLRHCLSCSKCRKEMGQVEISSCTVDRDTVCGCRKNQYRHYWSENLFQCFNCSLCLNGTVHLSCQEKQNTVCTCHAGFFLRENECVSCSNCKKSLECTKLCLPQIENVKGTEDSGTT
The experiment in a line: TNFR-1 receptor binding assay (RBA): inhibition of the binding of TNF-alpha to TNFR1 by the dAb; T0 sample.

Data set [5] has as its target T2, TNFR1-FC fusion. Kind of data set: TNFR-1 receptor binding assay (RBA): inhibition of the binding of TNF-alpha to TNFR1 by the dAb; sample after 14 days at 50 C in Britton-Robinson buffer, concentration assumed to be 1 mg/ml.
Data set [6] addresses T3, human TNFR1, soluble recombinant protein (human, UniProt P19438 22-211, limits assumed, biotinylated in the BIAcore assays (coupling via primary amines)).
T3 construct: also called biotinylated TNFR1; human recombinant E. coli-expressed human TNFR1
T3 sequence (looked up): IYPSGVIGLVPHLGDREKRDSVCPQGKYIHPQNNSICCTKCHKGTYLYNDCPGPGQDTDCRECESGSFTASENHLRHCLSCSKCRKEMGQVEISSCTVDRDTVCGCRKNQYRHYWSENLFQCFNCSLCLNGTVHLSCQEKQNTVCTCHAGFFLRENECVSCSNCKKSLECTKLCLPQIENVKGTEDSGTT
Kind of data set: BIAcore 3000, dAb over biotinylated human TNFR1 (1400 RU) on SA chip, 1:1 fit, 25 C, mean of 3 experiments. A general note: Surface plasmon resonance follows binding to a sensor surface in real time, without labels.

The target of data set [7] is T2, TNFR1-FC fusion. The experiment in a line: TNFR1 receptor binding assay: TNFR1-Fc on beads, TNF-alpha 10 ng/ml, ABI 8200; average of 3 experiments.
Data set [8] concerns the molecule itself. The experiment in a line: analytical ultracentrifugation, sedimentation equilibrium; monomer/dimer self-association.
Data set [9] deals with the molecule itself. Kind of data set: analytical ultracentrifugation, sedimentation velocity; monomer/dimer self-association.
The target of data set [10] is T4, TNFR1 on MRC-5 cells (UniProt P19438 30-455, limits assumed).
T4 sequence (looked up): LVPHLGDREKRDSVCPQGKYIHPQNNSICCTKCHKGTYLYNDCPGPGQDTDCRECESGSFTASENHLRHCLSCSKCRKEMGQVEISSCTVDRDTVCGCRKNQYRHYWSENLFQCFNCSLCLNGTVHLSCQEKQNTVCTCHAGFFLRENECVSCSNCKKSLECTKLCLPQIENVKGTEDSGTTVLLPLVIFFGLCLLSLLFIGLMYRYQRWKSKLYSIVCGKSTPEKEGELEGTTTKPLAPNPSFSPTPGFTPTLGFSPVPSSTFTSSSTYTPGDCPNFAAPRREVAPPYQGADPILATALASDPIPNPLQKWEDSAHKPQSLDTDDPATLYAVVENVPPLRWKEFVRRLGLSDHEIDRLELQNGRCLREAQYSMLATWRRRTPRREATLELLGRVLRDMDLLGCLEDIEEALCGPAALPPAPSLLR
The experiment in a line: cell-based or functional assay.

Data set [11] deals with the molecule itself. The experiment in a line: analytical ultracentrifugation, sedimentation equilibrium; monomer/dimer self-association; self-association (monomer to dimer) of the dAb by AUC sedimentation equilibrium, 0.5 mg/ml to 5 mg/ml.
Data set [12] has as its target T2, TNFR1-FC fusion. The experiment in a line: human TNFR1 receptor binding assay; dAb blocks binding of TNF-alpha (10 ng/ml) to bead-captured TNFR1-Fc; four replicates.
Data set [13] deals with the molecule itself. Kind of data set: analytical ultracentrifugation, sedimentation equilibrium; self-association.
In data set [14] the target is T5, IL-1R1 (UniProt P14778 18-332, limits assumed).
T5 construct: also called IL-R1
T5 sequence (looked up): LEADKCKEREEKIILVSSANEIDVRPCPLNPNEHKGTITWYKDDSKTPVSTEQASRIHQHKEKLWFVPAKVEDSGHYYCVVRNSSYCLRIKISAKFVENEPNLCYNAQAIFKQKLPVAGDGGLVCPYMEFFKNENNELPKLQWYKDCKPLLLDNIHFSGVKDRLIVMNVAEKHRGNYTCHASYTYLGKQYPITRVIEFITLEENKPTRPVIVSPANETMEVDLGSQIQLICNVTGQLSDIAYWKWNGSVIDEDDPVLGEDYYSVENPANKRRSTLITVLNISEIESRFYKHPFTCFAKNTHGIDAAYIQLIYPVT
Kind of data set: Receptor Binding Assay, inhibition of IL-1 binding to IL-R1.

T1 sequence (P15692 other isoform, or with tags, fused parts or gaps limits assumed): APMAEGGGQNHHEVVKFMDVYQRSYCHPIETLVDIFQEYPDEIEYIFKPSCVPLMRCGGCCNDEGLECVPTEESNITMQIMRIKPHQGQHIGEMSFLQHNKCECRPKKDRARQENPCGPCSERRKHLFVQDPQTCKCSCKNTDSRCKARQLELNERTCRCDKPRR

B1: DOM15-10 (other)
VL: DIQMTQSPSSLSASVGDRVTITCRASQWIGPELSWYQQKPGKAPKLLIYHTSILQSGVPSRFSGSGSGTDFTLTISSLQPEDFATYYCQQYMFQPRTFGQGTKVEIRR
notes: VK dAb against VEGF
Take B1: the equilibrium dissociation constant (Kd) in [1] stood at 23.6 nM. The EC50 in data set [2] worked out at 10.2 nM.

B2: DMS1546 (Fc fusion)
VL: DIQMTQSPSSLSASVGDRVTITCRASQWIGPELSWYQQKPGKAPKLLIYHTSILQSGVPSRFSGSGSGTDFTLTISSLQPEDFATYYCQQYMFQPRTFGQGTKVEIRR
modifications: disulfide-linked homodimer of this chain (bivalent dAb-Fc)
notes: dAb-Fc; also called DOM15-10 Fc fusion; not shown: TVAAPS linker and human IgG1 Fc
Consider B2, for which the “Activity (nM), RBA assay” value in [3] came out at 0.913 nM.

B3: DOM15-10-11 (other)
VL: DIQMTQSPSSLSASVGDRVTITCRASQWIGPELRWYQQKPGKAPKLLIYHTSILQSGVPSRFSGSGSGTDFTLTISSLQPEDFATYYCQQYMFQPMTFGQGTKVEIRG
notes: VK dAb against VEGF, trypsin-selected variant of DOM15-10
B3: in [1], the Kd came out at 14.6 nM. Moreover, the EC50 in data set [2] came out at 3.58 nM.

B4: DMS1531 (Fc fusion)
VL: DIQMTQSPSSLSASVGDRVTITCRASQWIGPELRWYQQKPGKAPKLLIYHTSILQSGVPSRFSGSGSGTDFTLTISSLQPEDFATYYCQQYMFQPMTFGQGTKVEIRG
modifications: disulfide-linked homodimer of this chain (bivalent dAb-Fc)
notes: dAb-Fc; also called DOM15-10-11 Fc fusion; not shown: TVAAPS linker and human IgG1 Fc
Take B4: in [3], the “Activity (nM), RBA assay” value turned out to be 0.577 nM.

B5: DOM1h-131-202 (other)
VH: EVQLLESGGGLVQPGGSLRLSCAASGFTFAHETMVWVRQAPGKGLEWVSHIPPDGQDPFYADSVKGRFTISRDNSKNTLYLQMNSLRAEDTAVYYCALLPKRGPWFDYWGQGTLVTVSS
notes: human VH dAb against TNFR1; also called GSK1922567A
Regarding B5, the “IC50 (read off the curve)” value in data set [4] and in [5] was approximately 0.1 nM each time. Besides, the Kd in [6] came to 0.55 nM; in data set [8] it was 1300 nM; in data set [9], 1000 nM. Also, a half-maximal response in data set [7] (EC50) required 0.11 nM.

B6: DOM1h-131-203 (other)
VH: EVQLWESGGGLVQPGGSLRLSCAASGFTFAHETMVWVRQAPGKGLEWVSHIPPDGQDPFYADSVKGRFTISRDNSKNTLYLQMNSLRAEDTAVYYCALLPKRGPWIDYWGQGTLVTVSS
Take B6: the “ND50 nM, MRC-5 cell-based assay (230307CE)” value (from here on “ND50 nM”) in data set [10] was found to be 2.28 nM.

B7: DOM1h-131-204 (other)
VH: EVQLSESGGGLVQPGGSLRLSCAASGFTFAHETMVWVRQAPGKGLEWVSHIPPDGQDPFYADSVKGRFTISRDNSKNTLYLQMNSLRAEDTAVYYCALLPNRGPWFDYWGQGTLVTVSS
Regarding B7, in data set [10], the “ND50 nM” value came out at 1.89 nM.

B8: DOM1h-131-206 (other)
VH: EVQLLESGGGLVQPGGSLRLSCAASGFTFAHETMVWVRQAPGKGLEWVSHIPPDGQDPFYADSVKGRFTISRDNSKNTLYLQMNSLRAEDTAVYHCALLPKRGPWFDYWGQGTLVTVSS
notes: human VH dAb against TNFR1; also called GSK1995057A
For B8, the Kd in data set [11] amounted to 360000 nM; in [6], 0.47 nM. In addition, the “ND50 nM” value in data set [10] was determined as 0.71 nM. For the same molecule, the “IC50 (read off the curve)” value in [12] was approximately 0.07 nM. In data set [7], this molecule showed an EC50 of 0.07 nM.

B9: DOM1h-131-511 (other)
VH: EVQLLESGGGLVQPGGSLRLSCAASGFTFAHETMVWVRQAPGKGLEWVSHIPPVGQDPFYADSVKGRFTISRDNSKNTLYLQMNSLRAEDTAVYYCALLPKRGPWFDYWGQGTLVTVSS
notes: human VH domain antibody (dAb) against TNFR1; also called GSK1995056A
With B9, in [13], the binding result is “binds”. Besides, in data set [10], the “ND50 nM” value amounted to 1.89 nM. Also, the “IC50 (read off the curve)” value in data set [12] was approximately 0.2 nM. In addition, in [6], the Kd amounted to 1.07 nM. For the same molecule, the EC50 in data set [7] is 0.19 nM.

B10: DOM4-130-54 (other)
VL: DIQMTQSPSSLSASVGDRVTITCRASQDIYLNLDWYQQKPGKAPKLLINFGSELQSGVPSRFSGSGYGTDFTLTISSLQPEDFATYYCQPSFYFPYTFGQGTKVEIKR
notes: VK domain antibody (dAb) against IL-1R1
In [14], B10 had an IC50 of 0.28 nM.

B11: DOM4-130-202 (other)
VL: DIQMTQSPSSLSASVGDRVTISCRASQDIYLNLDWYQQKPGKAPKLLISFGSELQSGVPSRFSGSGYGTDFTLTISSLQPEDSATYYCQPSFYYPYTFGQGTKVEIKR
notes: VK dAb against IL-1R1, trypsin-selected variant of DOM4-130-54
In data set [14], B11 showed an IC50 of 0.254 nM.

B12: DOM4-130-201 (other)
VL: DIQMTQSPSSLSASVGDRVTITCRASQDIYLNLDWYQQKPGKAPKLLIKFGSELQSGVPSRFSGSGYGTDFTLTISNLQPEDFATYYCQPSFYFPYTFGQGTKVEIKW
notes: as for B11
Regarding B12, in [14], the half-maximal inhibitory concentration (IC50) turned out to be 0.257 nM.

As a reminder, the Kd is a measure of binding affinity in units of concentration. For orientation: EC50 means the concentration giving half of the maximal effect. As usually defined, the IC50 is the concentration that inhibits the measured activity by half. A low value points to inhibition by little substance.
